How the values were obtained:
[1] = test system: Hsp90 complexes in K562 cell extract; assay: Nano-LC-MS/MS of PU-beads pull-downs; format: binding; conditions: protein identified in PU-beads pull-down of K562 cell extract, QSTAR-Elite QTof MS
Experimental: Protein cargo isolated from cell lysate with PU-beads or control-beads was subjected to proteomic analysis by nano liquid chromatography coupled to tandem mass spectrometry (nano LC-MS/MS). Initial protein identification was performed using the Mascot search engine, and was further evaluated using Scaffold Proteome Software (Tables 5a-d).
(§1) Lysates prepared as mentioned above were first pre-cleaned by incubation with control beads overnight at 4° C. […] Beads were washed with lysis buffer, proteins eluted by boiling in 2% SDS, separated on a denaturing gel and Coomassie stained according to manufacturer's procedure (Biorad). […] Analyses of the batch purified pools were done using a QSTAR-Elite hybrid quadrupole time-of-flight mass spectrometer (QTof MS) (AB/MDS Sciex), equipped with a nano spray ion source. Peptide mixtures (in 20 μL) are loaded onto a trapping guard column (0.3×5-mm PepMap C18 100 cartridge from LC Packings) using an Eksigent nano MDLC system (Eksigent Technologies, Inc) at a flow rate of 20 μL/min. […] Electrospray ionization (ESI) needle voltage was set at about 1800 V. The mass analyzer is operated in automatic, data-dependent MS/MS acquisition mode, with the threshold set to 10 counts per second of doubly or triply charged precursor ions selected for fragmentation scans. Survey scans of 0.25 sec are recorded from 400 to 1800 amu; up to 3 MS/MS scans are then collected sequentially for the selected precursor ions, recording from 100 to 1800 amu. The collision energy is automatically adjusted in accordance with the m/z value of the precursor ions selected for MS/MS. Selected precursor ions are excluded from repeated selection for 60 sec after the end of the corresponding fragmentation duty cycle. […] One missed tryptic cleavage site was allowed, precursor ion mass tolerance=0.4 Da fragment ion mass tolerance=0.4 Da, protein modifications were allowed for Met-oxide, Cys-acrylamide and N-terminal acetylation. MudPit scoring was typically applied with ‘require bold red’ activated, and using significance threshold score p<0.05. Unique peptide counts (or ‘spectral counts’) and percent sequence coverages for all identified proteins were exported to Scaffold Proteome Software (version 2_06_01, www.proteomesoftware.com) for further bioinformatic analysis (Table 5a). Using output from Mascot, Scaffold validates, organizes, and interprets mass spectrometry data, allowing more easily to manage large amounts of data, to compare samples, and to search for protein modifications.

[2] = test system: Hsp90 complexes in Mia-PaCa-2 cell extract; assay: Nano-LC-MS/MS of PU-beads pull-downs; format: binding, human; conditions: protein identified in PU-beads pull-down of Mia-PaCa-2 cell extract; QSTAR-Elite QTof MS
Experimental: as §1

Molecule | Number of Assigned Spectra, K562 Prep 1 [1] | Number of Assigned Spectra, K562 Prep 2 [1] | Number of Assigned Spectra, Mia-Paca 2 [2]
CTTN (protein, UniProt Q14247 1-550, looked up) Src substrate cortactin: MWKASAGHAVSIAQDDAGADDWETDPDFVNDVSEKEQRWGAKTVQGSGHQEHINIHKLRENVFQEHQTLKEKELETGPKASHGYGGKFGVEQDRMDKSAVGHEYQSKLSKHCSQVDSVRGFGGKFGVQMDRVDQSAVGFEYQGKTEKHASQKDYSSGFGGKYGVQADRVDKSAVGFDYQGKTEKHESQRDYSKGFGGKYGIDKDKVDKSAVGFEYQGKTEKHESQKDYVKGFGGKFGVQTDRQDKCALGWDHQEKLQLHESQKDYKTGFGGKFGVQSERQDSAAVGFDYKEKLAKHESQQDYSKGFGGKYGVQKDRMDKNASTFEDVTQVSSAYQKTVPVEAVTSKTSNIRANFENLAKEKEQEDRRKAEAERAQRMAKERQEQEEARRKLEEQARAKTQTPPVSPAPQPTEERLPSSPVYEDAASFKAELSYRGPVSGTEPEPVYSMEAADYREASSQQGLAYATEAVYESAEAPGHYPAEDSTYDEYENDLGITAVALYDYQAAGDDEISFDPDDIITNIEMIDDGWWRGVCKGRYGLFPANYVELRQ | 6 | 6 | 2
FAM120A (protein, UniProt Q9NZB2 1-1118, looked up) Constitutive coactivator of …: MGVQGFQDYIEKHCPSAVVPVELQKLARGSLVGGGRQRPPQTPLRLLVDADNCLHRLYGGFYTDWVSGGQWNHMLGYLAALAKACFGGNIELFVFFNGALEKARLHEWVKRQGNERQTAQQIVSHVQNKGTPPPKVWFLPPVCMAHCIRLALIRFHVKVAQSIEDHHQEVIGFCRENGFHGLVAYDSDYALCNIPYYFSAHALKLSRNGKSLTTSQYLMHEVAKQLDLNPNRFPIFAALLGNHILPDEDLASFHWSLLGPEHPLASLKVRAHQLVLPPCDVVIKAVADYVRNIQDTSDLDAIAKDVFQHSQSRTDDKVIRFKRAIGYYSATSKPMSFHPPHYLAARPGPFGMPGMVPPHVPPQMLNIPQTSLQAKPVAPQVPSPGGAPGQGPYPYSLSEPAPLTLDTSGKNLTEQNSYSNIPHEGKHTPLYERSSPINPAQSGSPNHVDSAYFPGSSTSSSSDNDEGSGGATNHISGNKIGWEKTGSHSEPQARGDPGDQTKAEGSSTASSGSQLAEGKGSQMGTVQPIPCLLSMPTRNHMDITTPPLPPVAPEVLRVAEHRHKKGLMYPYIFHVLTKGEIKIAVSIEDEANKDLPPAALLYRPVRQYVYGVLFSLAESRKKTERLAFRKNRLPPEFSPVIIKEWAAYKGKSPQTPELVEALAFREWTCPNLKRLWLGKAVEDKNRRMRAFLACMRSDTPAMLNPANVPTHLMVLCCVLRYMVQWPGARILRRQELDAFLAQALSPKLYEPDQLQELKIENLDPRGIQLSALFMSGVDMALFANDACGQPIPWEHCCPWMYFDGKLFQSKLLKASREKTPLIDLCDGQADQAAKVEKMRQSVLEGLSFSRQSHTLPFPPPPALPFYPASAYPRHFGPVPPSQGRGRGFAGVCGFGGPYGETVATGPYRAFRVAAASGHCGAFSGSDSSRTSKSQGGVQPIPSQGGKLEIAGTVVGHWAGSRRGRGGRGPFPLQVVSVGGPARGRPRGVISTPVIRTFGRGGRYYGRGYKNQAAIQGRPPYAASAEEVAKELKSKSGESKSSAMSSDGSLAENGVMAEEKPAPQMNGSTGDARAPSHSESALNNDSKTCNTNPHLNALSTDSACRREAALEAAVLNKEE | 1 | 1 | 12
HEATR6 (protein, UniProt Q6AI08 1-1181, looked up) HEAT repeat-containing …: MAAVQVVGSWPSVQPREAPREAIPERGNGFRLLSARLCALRPDDSSSARTEIHLLFDQLISENYSEGSGVAPEDVSALLVQACRLVPLNQNHLVSKVSQLIHHLLNRLQVIVDEQHLDFLLAYTISAIHQCSSWTHREILQALAALVYCNGSKCQKYLPELLGNTGLLMKLSDLAQSDPEVRRAAVHCMANLCLSVPGQPYLEEPYQNVCFQAFLTILQSPKSSDMDDITFCMLLQNALKGIQSLLNGGRMKLTQTDELGALLAVLKKFMFHGLPGLNIEMPTVLYPTPLPQYDGRTPIKPQQSESSASRPTLNKKKKSKVKPKKIQQGEEEEKESSGEIEAAPVTGTGRVNLHEGNTWCPSSLGVQSLPLDGSGAAEKDGVSSSFSSSSWKRVSSSESDFSDAEGGMQSKMRSYQAKVRQGALVCFLSTIKSIEKKVLYGYWSAFIPDTPELGSPQSVSLMTLTLKDPSPKTRACALQVLSAILEGSKQFLSVAEDTSDHRRAFTPFSVMIACSIRELHRCLLLALVAESSSQTVTQIIKCLANLVSNAPYDRLKLSLLTKVWNQIKPYIRHKDVNVRVSSLTLLGAIVSTHAPLPEVQLLLQQPCSSGLGNSNSATPHLSPPDWWKKAPAGPSLEETSVSSPKGSSEPCWLIRLCISIVVLPKEDSCSGSDAGSAAGSTYEPSPMRLEALQVLTLLARGYFSMTQAYLMELGEVICKCMGEADPSIQLHGAKLLEELGTGLIQQYKPDSTAAPDQRAPVFLVVMFWTMMLNGPLPRALQNSEHPTLQASACDALSSILPEAFSNLPNDRQMLCITVLLGLNDSKNRLVKAATSRALGVYVLFPCLRQDVIFVADAANAILMSLEDKSLNVRAKAAWSLGNLTDTLIVNMETPDPSFQEEFSGLLLLKMLRSAIEASKDKDKVKSNAVRALGNLLHFLQPSHIEKPTFAEIIEESIQALISTVLTEAAMKVRWNACYAMGNVFKNPALPLGTAPWTSQAYNALTSVVTSCKNFKVRIRSAAALSVPGKREQYGSVDQYARIWNALVTALQKSEDTIDFLEFKYCVSLRTQICQALIHLLSLASASDLPCMKETLELSGNMVQSYILQFLKSGAEGDDTGAPHSPQERDQMVRMALKHMGSIQAPTGDTARRAIMGFLEEILAVCFDSSGSQGALPGLTNQ | 2 | 1 | 0
AIP (protein, UniProt O00170 1-330, looked up) AH receptor-interacting …: MADIIARLREDGIQKRVIQEGRGELPDFQDGTKATFHYRTLHSDDEGTVLDDSRARGKPMELIIGKKFKLPVWETIVCTMREGEIAQFLCDIKHVVLYPLVAKSLRNIAVGKDPLEGQRHCCGVAQMREHSSLGHADLDALQQNPQPLIFHMEMLKVESPGTYQQDPWAMTDEEKAKAVPLIHQEGNRLYREGHVKEAAAKYYDAIACLKNLQMKEQPGSPEWIQLDQQITPLLLNYCQCKLVVEEYYEVLDHCSSILNKYDDNVKAYFKRGKAHAAVWNAQEAQADFAKVLELDPALAPVVSRELRALEARIRQKDEEDKARFRGIFSH | 10 | 0 | 0
NAT10 (protein, UniProt Q9H0A0 1-1025, looked up) RNA cytidine acetyltransferase: MHRKKVDNRIRILIENGVAERQRSLFVVVGDRGKDQVVILHHMLSKATVKARPSVLWCYKKELGFSSHRKKRMRQLQKKIKNGTLNIKQDDPFELFIAATNIRYCYYNETHKILGNTFGMCVLQDFEALTPNLLARTVETVEGGGLVVILLRTMNSLKQLYTVTMDVHSRYRTEAHQDVVGRFNERFILSLASCKKCLVIDDQLNILPISSHVATMEALPPQTPDESLGPSDLELRELKESLQDTQPVGVLVDCCKTLDQAKAVLKFIEGISEKTLRSTVALTAARGRGKSAALGLAIAGAVAFGYSNIFVTSPSPDNLHTLFEFVFKGFDALQYQEHLDYEIIQSLNPEFNKAVIRVNVFREHRQTIQYIHPADAVKLGQAELVVIDEAAAIPLPLVKSLLGPYLVFMASTINGYEGTGRSLSLKLIQQLRQQSAQSQVSTTAENKTTTTARLASARTLYEVSLQESIRYAPGDAVEKWLNDLLCLDCLNITRIVSGCPLPEACELYYVNRDTLFCYHKASEVFLQRLMALYVASHYKNSPNDLQMLSDAPAHHLFCLLPPVPPTQNALPEVLAVIQVCLEGEISRQSILNSLSRGKKASGDLIPWTVSEQFQDPDFGGLSGGRVVRIAVHPDYQGMGYGSRALQLLQMYYEGRFPCLEEKVLETPQEIHTVSSEAVSLLEEVITPRKDLPPLLLKLNERPAERLDYLGVSYGLTPRLLKFWKRAGFVPVYLRQTPNDLTGEHSCIMLKTLTDEDEADQGGWLAAFWKDFRRRFLALLSYQFSTFSPSLALNIIQNRNMGKPAQPALSREELEALFLPYDLKRLEMYSRNMVDYHLIMDMIPAISRIYFLNQLGDLALSAAQSALLLGIGLQHKSVDQLEKEIELPSGQLMGLFNRIIRKVVKLFNEVQEKAIEEQMVAAKDVVMEPTMKTLSDDLDEAAKEFQEKHKKEVGKLKSMDLSEYIIRGDDEEWNEVLNKAGPNASIISLKSDKKRKLEAKQEPKQSKKLKNRETKNKKDMKLKRKK | 8 | 3 | 1

Source: patent US20220074941A1, “HSP90 COMBINATION THERAPY” (Sloan-Kettering Institute for Cancer Research, priority 2011, published 2022)
